Patent US20050182242A1, “Global analysis of protein activities using proteome chips” (priority 2001, published 2005)

Key:
PI(3,4,5)P3 liposomes = assay: Yeast proteome chip probed with PI(3,4,5)P3 liposomes; conditions: liposome binding signal on yeast proteome chip, Cy3-streptavidin detection
Text: To identify PI-binding proteins in yeast, liposomes were used as probes because the liposome provides the most relevant physiological condition to assay the interactors. Six types of liposomes were used. Each contains phosphatidylcholine (“PC”) with 1% (w/w) N-(biotinoyl)-1,2-dihexadecanoyl-sn-glycero-3-phosphoethanolamine, triethylammonium salt (biotin DHPE). The biotinylated lipid serves as a label that can be detected by Cy3-streptavidin (21). In addition to PC, the five other liposomes contain either 5% (w/w) PI(3)P, PI(4)P, PI(3,4)P2, PI(4,5)P2, or PI(3,4,5)P3 (FIG. 3A).
The protein-liposome interaction was assayed as follows. Appropriate amounts of each lipid in chloroform were mixed and dried under nitrogen. The lipid mixture was resuspended in TBS buffer by vortexing. The liposomes were created by sonication. Blocked proteome chips were washed three to five times in PBS buffer, and the extra liquid on the glass surface was removed by tapping the slides vertically on a KIMWIPE™. 200 μl of liposome solution was added to the proteome chip and immediately covered by a hydrophobic plastic cover slip (GRACE BIO-LAB™, USA). After trapped air bubbles were removed, the chip was incubated in a humidity chamber at RT for one hour. To remove the cover slip, the chip was immersed into large volume of PBS buffer (50 ml), so that the slip would float away. The chip was then moved to a second PBS bath (>50 ml) and washed 3×5 min with shaking at RT. After removing extra liquid on the surface of the chip, about 100 μl of Cy3 or Cy5 conjugated streptavidin (PIERCE™, USA; 1:2000 to 1:4000 dilution) was added to the surface and covered by a hydrophobic plastic cover slip (GRACE BIO-LABS™, USA). The chip was incubated for greater than 30 min in the dark at RT. The chip was then washed as described above. To completely remove the liquid on the chip, the chip was spun to dryness at 1500-2000 rpm for 5-10 min at RT.
• 1. S. Fields, Y. Kohara, D. J. Lockhart, Proc. Natl. Acad. Sci. 96, 8825 (1999); A. Goffeau et al., Science 274, 563 (1996). • 2 P. Ross-Macdonald et al., Nature 402, 413 (1999); J. L., DeRisi, V. R. Iyer, P. O. Brown, Science 278, 680 (1997); E. A. Winzeler et al., Science 285, 901 (1999). P. Uetz et al., Nature 403, 623 (2000); T. Ito et al., Proc. Natl. Acad. Sci. USA. 97, 1143 (2000) • 3 H. Zhu, M. Snyder, Curr. Opin. Chem. Biol. 5, 40 (2001). • 4 M. R. Martzen et al., Science 286, 1153 (1999). • 5 H. Zhu et al., Nat. Genet. 26, 283 (2000). • 6 G. MacBeath, S. L. Schreiber, Science 289, 1760 (2000). • 7 A. Caveman, J. Cell Sci. 113, 3543 (2000). • 8 P. Arenkov et al., Anal. Biochem 278, 123 (2000). • 9 D. A. Mitchell, T. K. Marshall, R. J. Deschenes, Yeast 9, 715 (1993). The expression vector pEGH was created by inserting an RGS-HisX6 epitope tag between the GST gene and the polycloning site of pEG(KG). The yeast ORFs were cloned using the strategy described previously (5), except every step was done in a 96-well format. Plasmid DNAs confirmed by DNA sequencing were reintroduced into both yeast (Y258) and E. coli (DH5a). […] 0.1 mM calcium was present in buffers in all subsequent steps. The chip was washed three times with PBS at RT. Cy3-conjugated streptavidin (Jackson IR, USA) (1:5000 dilution) was added to the chip and incubated for 30 min at RT. After extensive washing, the chip was spun dry and scanned using a microarray scanner; the data was subsequently acquired with the GENEPIX™ array densitometry software (Axon, USA). • 12 S. S. Hook, A. R. Means, Annu. Rev. Pharmacol. Toxicol.41, 471 (2001). • 13 M. S. Cyert, R. Kunisawa, D. Kaim, J. Thorner, Proc. Natl. Acad. Sci. USA 88, 7376 (1991). • 14 D. A. Stirling, K. A. Welch, M. J. Stark, EMBO J. 13, 4329 (1994). • 15 F. Bohl, Kruse, EMBO J. 19, 5514 (2000); E. Bertrand et al., Mol. Cell 2, 437 (1998). • 16 D. C. Winter, E. Y. Choe, R. Li, Proc. Nat. Acad Sci. USA 96, 7288 (1999). • 17 C.

six different liposomes = assay: Reverse membrane assay: proteins spotted on nitrocellulose probed with six liposomes; assay type: binding
Method: B. A reverse assay was carried out to test for protein-lipid interactions. The proteins were prepared and spotted onto nitrocellulose filters in a dilution series and probed with the six different liposomes. As a control, the six liposomes were also added to the BSA-blocked membrane. After extensive washing, the bound liposomes were detected using an HRP-conjugated streptavidin and an ECL kit.
C. Linear correlation between the binding signals and the amounts of Rim15p in a membrane assay. When liposome-binding signals of Rim15p from the membrane assay (FIG. 4B) were plotted against the concentration gradient of the spotted Rim15p, the binding signals of PI(4)P, PI(3,4)P2, PI(3)P, and PI(4,5)P2 correlated linearly with the amounts of Rim15p.
Therefore, six proteins, i.e., Rim15p, Eno2p, Hxk1p, Sps1p, Yg1059wp, and Gcn2p, were further tested for phosphoinositol binding using two types of standard assays (Williamson, 2000, Nat. Struct Biol. 7(10):834-7). For Rim15p, Eno2p, and Hxk1p, PI(4,5)P2 liposomes were first adhered to a nitrocellulose membrane, which was then blocked by BSA; different amounts of the GST fusion proteins and a GST control were used to probe the membrane, and bound proteins were detected using anti-GST antibodies. […] We also carried out the reverse assay for four GST fusion proteins, Rim15p, Sps1p, Yg1059wp, and Gcn2p (Guerra et al., 2000, Biosci. Rep. 20: 41). Different amounts of these purified proteins were spotted onto nitrocellulose filters and probed with the six different liposomes (FIG. 5B). The bound liposomes were detected using a horseradish peroxidase (“HRP”)-conjugated streptavidin.

RIM15: yeast protein kinase, regulator of glucose metabolism, GST-HisX6 fusion
PI(3, 4, 5)P3 (PI(3,4,5)P3 liposomes): 1219.28 | liposome binding in reverse membrane assay (six different liposomes; HRP-conjugated streptavidin): bound strongest to PI(3)P and PI(4)P and PI(3,4)P2 | affinity of PI(4)P relative to control PC (six different liposomes; membrane assay, signal vs amount of protein): at least three-fold higher
